The values that follow come from patent publication US20030100094A1 (NEW ENGLAND BIOLABS, published 2003).

Substitutions are numbered along the chain they refer to. Names and notes keep the numbering of the source.

For test [1], the target named is T1, BbvCI restriction endonuclease subunit R2 (wild type, 285 aa, 32 kDa) (Bacillus brevis).
T1 construct: Recombinant, co-expressed with the R1 subunit in E. coli; also called BbvCI-R2; subunit 2
T1 chain: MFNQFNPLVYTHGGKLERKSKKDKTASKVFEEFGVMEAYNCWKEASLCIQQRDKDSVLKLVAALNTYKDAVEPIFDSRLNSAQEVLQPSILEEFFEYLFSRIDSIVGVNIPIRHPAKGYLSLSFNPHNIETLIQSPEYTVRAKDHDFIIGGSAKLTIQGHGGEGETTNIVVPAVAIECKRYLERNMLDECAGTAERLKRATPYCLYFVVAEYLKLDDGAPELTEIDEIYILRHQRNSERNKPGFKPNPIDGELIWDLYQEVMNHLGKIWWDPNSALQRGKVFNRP
In words: SDS-PAGE of purified enzyme (subunits co-purify). From the text: (§1) FIG. 9. SDS-PAGE analysis of purified wild type R.BbvCI restriction endonuclease (lanes 2-3: prep. ‘Dan’; lanes 4-6: prep. ‘Diane’), and of purified N.BbvCI nicking endonucleases 2-12 (lanes 7-9), and 1-37 (lanes 10-12). Lane 1 (far left) contains molecular weight markers. All the enzymes preps migrate as two bands of roughly equal intensity signifying that the enzymes are heterodimers with 1:1 subunit stoichiometry.

Test [2] deals with T2, BbvCI subunit R2 E177G (mutated subunit of nicking enzyme N.BbvCI 2-12) (Bacillus brevis).
T2 construct: The R2 subunit of enzyme mutant 2-12 (R1+:R2E177G), also called Nb.BbvCI; also called ECK->GCK
T2 chain: T1 chain with E177G
In words: SDS-PAGE of purified enzyme (subunits co-purify).
Description: as §1

B1: BbvCI restriction endonuclease subunit R1 (wild type, 275 aa, 31 kDa) (enzyme)
chain: MINEDFFIYEQLSHKKNLEQKGKNAFDEETEELVRQAKSGYHAFIEGINYDEVTKLDLNSSVAALEDYISIAKEIEKKHKMFNWRSDYAGSIIPEFLYRIVHVATVKAGLKPIFSTRNTIIEISGAAHREGLQIRRKNEDFALGFHEVDVKIASESHRVISLAVACEVKTNIDKNKLNGLDFSAERMKRTYPGSAYFLITETLDFSPDENHSSGLIDEIYVLRKQVRTKNRVQKAPLCPSVFAELLEDILEISYRASNVKGHVYDRLEGGKLIRV
notes: Recombinant, co-expressed with the R2 subunit in E. coli; also called BbvCI-R1; subunit 1
Regarding B1, the binding result in test [1] and in test [2] was “binds” throughout.

B2: BbvCI subunit R1 E167G (mutated subunit of nicking enzyme N.BbvCI 1-37) (enzyme)
chain: B1 chain with E167G
notes: The R1 subunit of enzyme mutant 1-37 (R1E167G:R2+), also called Nt.BbvCI; also called EVK->GVK
In the case of B2, the binding result in test [1] was “binds”.
